In paper PMC8635308, “Neuropilin 1 regulates bone marrow vascular regeneration and hematopoietic reconstitution” (Nature Communications, 2021):

Key:
[1] = biological target: Mouse NRP1 (Recombinant Mouse Neuropilin-1 Protein, CF) (mouse) (UniProt P97333); test: SPR; Pioneer SensiQ; mouse NRP1 immobilised on a Polycarboxylate High Capacity (PCH) chip in 10 mM sodium acetate pH 5.0 (2307 RU for mouse SEMA3A Fc, 1565 RU for human SEMA3A Fc); SEMA3A-Fc flowed over; running buffer 20 mM HEPES pH 7.5, 150 mM NaCl, 0.005% Tween-20; OneStep kinetics, single concentration (100 nM mouse or 50 nM human SEMA3A Fc), 75 ul/min
[2] = biological target: T1, Mouse NRP1 (Recombinant Mouse Neuropilin-1 Protein, CF) (mouse, UniProt P97333 22-856); test: as above; details: both partners purified
T1 construct: Neuropilin-1, mouse, recombinant soluble protein; also called murine NRP1; mouse NRP1 receptor; source: bought: R&D Systems
T1 sequence (looked up): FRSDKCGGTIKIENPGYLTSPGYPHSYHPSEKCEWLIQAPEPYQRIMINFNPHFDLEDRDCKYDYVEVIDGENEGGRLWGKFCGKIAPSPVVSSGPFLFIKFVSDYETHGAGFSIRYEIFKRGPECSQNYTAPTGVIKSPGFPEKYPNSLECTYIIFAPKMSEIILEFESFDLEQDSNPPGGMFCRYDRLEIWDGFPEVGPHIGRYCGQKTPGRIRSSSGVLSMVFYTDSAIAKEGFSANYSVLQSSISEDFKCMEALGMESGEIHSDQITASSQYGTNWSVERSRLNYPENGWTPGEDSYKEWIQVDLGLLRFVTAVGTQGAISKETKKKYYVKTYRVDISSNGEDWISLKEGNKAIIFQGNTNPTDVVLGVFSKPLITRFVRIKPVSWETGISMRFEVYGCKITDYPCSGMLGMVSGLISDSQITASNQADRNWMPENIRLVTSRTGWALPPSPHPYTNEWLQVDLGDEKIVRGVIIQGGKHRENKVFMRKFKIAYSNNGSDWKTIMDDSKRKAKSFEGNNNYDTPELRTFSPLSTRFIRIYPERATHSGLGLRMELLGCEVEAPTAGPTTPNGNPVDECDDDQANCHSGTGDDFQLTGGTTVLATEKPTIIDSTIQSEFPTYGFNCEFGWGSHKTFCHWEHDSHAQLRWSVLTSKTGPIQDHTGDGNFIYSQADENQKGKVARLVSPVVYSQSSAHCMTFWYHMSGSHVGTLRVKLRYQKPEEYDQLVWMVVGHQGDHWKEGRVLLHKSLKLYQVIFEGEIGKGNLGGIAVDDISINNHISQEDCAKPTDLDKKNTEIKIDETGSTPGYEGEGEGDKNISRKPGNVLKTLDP

## recombinant human full length SEMA3A Fc (huSEMA3A, Lys26-Val771) (from UniProt Q14563 26-771) (Fc fusion)
[1]
  Kd: 1.8 nM

B1: recombinant mouse SEMA3A Fc (muSEMA3A, Asn21-Lys747) (Fc fusion, UniProt O08665 21-747, looked up)
chain: NYANGKNNVPRLKLSYKEMLESNNVITFNGLANSSSYHTFLLDEERSRLYVGAKDHIFSFNLVNIKDFQKIVWPVSYTRRDECKWAGKDILKECANFIKVLEAYNQTHLYACGTGAFHPICTYIEVGHHPEDNIFKLQDSHFENGRGKSPYDPKLLTASLLIDGELYSGTAADFMGRDFAIFRTLGHHHPIRTEQHDSRWLNDPRFISAHLIPESDNPEDDKVYFFFRENAIDGEHSGKATHARIGQICKNDFGGHRSLVNKWTTFLKARLICSVPGPNGIDTHFDELQDVFLMNSKDPKNPIVYGVFTTSSNIFKGSAVCMYSMSDVRRVFLGPYAHRDGPNYQWVPYQGRVPYPRPGTCPSKTFGGFDSTKDLPDDVITFARSHPAMYNPVFPINNRPIMIKTDVNYQFTQIVVDRVDAEDGQYDVMFIGTDVGTVLKVVSVPKETWHDLEEILLEEMTVFREPTTISAMELSTKQQQLYIGSTAGVAQLPLHRCDIYGKACAECCLARDPYCAWDGSSCSRYFPTAKRRTRRQDIRNGDPLTHCSDLQHHDNHHGPSLEERIIYGVENSSTFLECSPKSQRALVYWQFQRRNEDRKEEIRMGDHIIRTEQGLLLRSLQKKDSGNYLCHAVEHGFMQTLLKVTLEVIDTEHLEELLHKDDDGDGSKIKEMSSSMTPSQKVWYRDFMQLINHPNLNTMDEFCEQVWKRDRKQRRQRPGHSQGSSNK
notes: Semaphorin 3A, mouse, Asn21-Lys747, truncated at the C-terminus (lacks the RNRR and RAPR stretches); also called Murine SEMA3A Fc; truncated murine SEMA3A; source: bought: R&D Systems
[2]
  Kd: ~4.4 nM
